What was measured:
AncSZ = experiment: phosphorylation enrichment, bacterial display (enrichment ratio); higher = better substrate or ligand; peptides without Tyr show the background
EPHB1 = EPHB1 (UniProt P54762); experiment: as above
EPHB2 = EPHB2 (UniProt P29323); experiment: as above
FGFR1 = FGFR1 (UniProt P11362); experiment: as above
FGFR3 = FGFR3 (UniProt P22607); experiment: as above
Fer (mouse) = experiment: as above
Fes = Fes (UniProt P07332); experiment: as above
Fyn = Fyn (UniProt P06241); experiment: as above
Sequence of Fyn (P06241 whole entry, looked up): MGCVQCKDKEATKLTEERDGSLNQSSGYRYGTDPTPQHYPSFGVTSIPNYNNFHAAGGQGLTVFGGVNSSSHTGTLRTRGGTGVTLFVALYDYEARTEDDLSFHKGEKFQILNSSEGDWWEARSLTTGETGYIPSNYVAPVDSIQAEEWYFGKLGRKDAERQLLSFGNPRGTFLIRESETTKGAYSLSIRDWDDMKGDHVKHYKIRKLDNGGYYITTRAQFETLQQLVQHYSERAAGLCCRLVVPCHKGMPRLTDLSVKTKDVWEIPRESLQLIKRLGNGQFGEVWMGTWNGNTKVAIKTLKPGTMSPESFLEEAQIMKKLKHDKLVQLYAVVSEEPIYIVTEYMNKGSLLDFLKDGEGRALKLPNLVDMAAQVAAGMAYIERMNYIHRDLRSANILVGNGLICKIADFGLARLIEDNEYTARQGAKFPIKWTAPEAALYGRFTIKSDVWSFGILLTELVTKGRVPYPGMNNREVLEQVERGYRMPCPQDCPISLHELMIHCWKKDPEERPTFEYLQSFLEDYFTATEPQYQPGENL

Hck = Hck (UniProt P08631); experiment: as above
Sequence of Hck (P08631 whole entry, looked up): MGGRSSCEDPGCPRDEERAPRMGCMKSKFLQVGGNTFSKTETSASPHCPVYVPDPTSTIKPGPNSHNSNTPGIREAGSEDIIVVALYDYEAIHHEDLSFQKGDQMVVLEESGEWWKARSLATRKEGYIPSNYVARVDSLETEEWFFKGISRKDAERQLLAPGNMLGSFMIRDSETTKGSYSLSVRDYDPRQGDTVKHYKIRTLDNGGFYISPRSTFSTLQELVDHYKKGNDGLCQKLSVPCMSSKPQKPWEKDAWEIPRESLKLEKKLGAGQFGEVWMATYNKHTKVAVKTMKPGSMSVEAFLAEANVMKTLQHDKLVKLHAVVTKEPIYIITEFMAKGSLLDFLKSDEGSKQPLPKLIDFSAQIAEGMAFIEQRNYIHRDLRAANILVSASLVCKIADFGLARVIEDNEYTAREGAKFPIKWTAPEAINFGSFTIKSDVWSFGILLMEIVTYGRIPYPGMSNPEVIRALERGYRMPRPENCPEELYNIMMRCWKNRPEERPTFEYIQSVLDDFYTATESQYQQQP

Jak2 = Jak2 (UniProt O60674); experiment: as above
MERTK = MERTK (UniProt Q12866); experiment: as above
Sequence of MERTK (Q12866 whole entry, looked up): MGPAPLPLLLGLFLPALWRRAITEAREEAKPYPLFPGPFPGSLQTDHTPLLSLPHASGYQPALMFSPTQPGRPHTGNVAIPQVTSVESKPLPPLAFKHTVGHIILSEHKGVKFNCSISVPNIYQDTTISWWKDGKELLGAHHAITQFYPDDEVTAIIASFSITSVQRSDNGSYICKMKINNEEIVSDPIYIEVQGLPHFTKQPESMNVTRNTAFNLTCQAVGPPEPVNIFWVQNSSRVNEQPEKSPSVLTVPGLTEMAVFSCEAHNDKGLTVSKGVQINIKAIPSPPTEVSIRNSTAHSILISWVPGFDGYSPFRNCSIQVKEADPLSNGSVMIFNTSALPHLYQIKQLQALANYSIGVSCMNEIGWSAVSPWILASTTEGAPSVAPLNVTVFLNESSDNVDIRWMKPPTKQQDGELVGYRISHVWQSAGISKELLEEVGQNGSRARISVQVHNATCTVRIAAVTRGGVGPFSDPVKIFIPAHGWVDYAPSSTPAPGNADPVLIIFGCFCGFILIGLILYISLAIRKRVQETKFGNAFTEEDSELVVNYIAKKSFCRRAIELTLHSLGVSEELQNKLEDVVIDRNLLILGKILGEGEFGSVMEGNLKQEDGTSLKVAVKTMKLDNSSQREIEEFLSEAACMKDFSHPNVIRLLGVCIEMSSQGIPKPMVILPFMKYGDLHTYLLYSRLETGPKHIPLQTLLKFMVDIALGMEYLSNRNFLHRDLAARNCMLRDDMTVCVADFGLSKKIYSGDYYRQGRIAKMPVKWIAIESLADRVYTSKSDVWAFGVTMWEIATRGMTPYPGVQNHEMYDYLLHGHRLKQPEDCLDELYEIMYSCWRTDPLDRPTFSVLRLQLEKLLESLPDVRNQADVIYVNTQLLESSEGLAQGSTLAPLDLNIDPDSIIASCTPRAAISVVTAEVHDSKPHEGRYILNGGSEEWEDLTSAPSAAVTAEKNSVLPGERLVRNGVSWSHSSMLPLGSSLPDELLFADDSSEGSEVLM

c-Abl (mouse) = experiment: as above
c-Src = experiment: as above
Grb2 SH2 = Grb2 SH2 (UniProt P62993); experiment: SH2 binding enrichment of the phosphorylated peptide, bacterial display (enrichment ratio); higher = better substrate or ligand; peptides without Tyr show the background
SHP2-C SH2 = experiment: as above
c-Src SH2 = experiment: as above
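Throughout, for SH2 binding enrichment of the phosphorylated peptide, bacterial display: peptide library displayed on the E. coli surface as eCPX fusions, selected cells deep-sequenced, score is each peptide's frequency after selection divided by its frequency in the input.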
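Throughout, for phosphorylation enrichment, bacterial display: 11-residue human phosphosite peptides and single-mutation variants displayed on the E. coli surface, counted by deep sequencing, each peptide's frequency after selection divided by its frequency in the unselected input library; frequency after pTyr selection over input frequency; kinase dosed for 20-30% of maximal phosphorylation in three min.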

Sequence of FGFR1 (P11362 whole entry, looked up): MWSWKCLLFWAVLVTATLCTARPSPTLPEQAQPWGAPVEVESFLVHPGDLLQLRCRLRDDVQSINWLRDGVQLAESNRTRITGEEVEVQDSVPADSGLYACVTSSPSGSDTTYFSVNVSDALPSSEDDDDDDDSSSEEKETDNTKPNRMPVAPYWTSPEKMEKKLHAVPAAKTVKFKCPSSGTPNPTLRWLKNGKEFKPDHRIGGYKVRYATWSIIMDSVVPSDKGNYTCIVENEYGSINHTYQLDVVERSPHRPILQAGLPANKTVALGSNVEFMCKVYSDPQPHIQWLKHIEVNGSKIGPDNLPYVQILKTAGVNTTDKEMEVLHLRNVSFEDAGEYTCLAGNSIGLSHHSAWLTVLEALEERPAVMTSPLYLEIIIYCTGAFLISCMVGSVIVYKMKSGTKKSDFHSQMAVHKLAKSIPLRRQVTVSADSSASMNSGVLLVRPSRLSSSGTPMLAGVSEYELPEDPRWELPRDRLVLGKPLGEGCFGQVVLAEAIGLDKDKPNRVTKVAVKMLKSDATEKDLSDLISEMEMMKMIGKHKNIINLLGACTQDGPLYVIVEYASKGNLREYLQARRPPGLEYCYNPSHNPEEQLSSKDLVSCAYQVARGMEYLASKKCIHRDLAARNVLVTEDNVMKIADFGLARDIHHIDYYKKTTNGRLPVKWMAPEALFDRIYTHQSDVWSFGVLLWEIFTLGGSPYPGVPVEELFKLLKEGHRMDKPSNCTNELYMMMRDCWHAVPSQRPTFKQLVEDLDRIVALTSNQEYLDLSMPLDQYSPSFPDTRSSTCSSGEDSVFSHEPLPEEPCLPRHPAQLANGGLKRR
Sequence of EPHB2 (P29323 whole entry, looked up): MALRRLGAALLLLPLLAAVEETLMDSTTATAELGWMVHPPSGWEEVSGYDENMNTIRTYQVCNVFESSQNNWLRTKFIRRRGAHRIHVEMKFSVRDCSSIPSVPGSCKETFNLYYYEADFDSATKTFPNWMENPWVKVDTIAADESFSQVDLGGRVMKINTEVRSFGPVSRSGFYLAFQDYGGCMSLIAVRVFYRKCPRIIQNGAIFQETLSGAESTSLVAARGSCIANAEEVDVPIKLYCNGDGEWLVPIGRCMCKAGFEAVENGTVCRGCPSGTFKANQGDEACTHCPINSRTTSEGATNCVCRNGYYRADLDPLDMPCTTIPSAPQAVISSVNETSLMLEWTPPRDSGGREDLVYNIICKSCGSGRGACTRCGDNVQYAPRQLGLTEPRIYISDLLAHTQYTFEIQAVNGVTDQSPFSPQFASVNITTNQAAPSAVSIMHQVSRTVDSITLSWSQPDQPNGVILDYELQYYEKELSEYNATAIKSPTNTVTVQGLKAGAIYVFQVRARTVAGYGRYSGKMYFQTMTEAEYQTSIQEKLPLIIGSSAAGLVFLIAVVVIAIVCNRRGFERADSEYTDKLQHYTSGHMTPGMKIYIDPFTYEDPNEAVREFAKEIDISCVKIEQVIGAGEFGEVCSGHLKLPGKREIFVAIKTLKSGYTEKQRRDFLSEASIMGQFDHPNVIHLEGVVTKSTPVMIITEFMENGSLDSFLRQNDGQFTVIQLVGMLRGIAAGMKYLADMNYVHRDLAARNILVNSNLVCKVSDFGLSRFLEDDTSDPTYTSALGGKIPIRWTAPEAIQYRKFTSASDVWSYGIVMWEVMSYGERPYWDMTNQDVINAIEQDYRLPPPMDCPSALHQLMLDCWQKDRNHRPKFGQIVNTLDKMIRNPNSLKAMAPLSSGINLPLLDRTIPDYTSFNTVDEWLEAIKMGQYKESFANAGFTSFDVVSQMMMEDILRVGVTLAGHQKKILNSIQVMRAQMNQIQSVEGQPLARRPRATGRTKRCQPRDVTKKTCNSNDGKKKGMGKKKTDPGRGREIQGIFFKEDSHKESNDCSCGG
Sequence of Fes (P07332 whole entry, looked up): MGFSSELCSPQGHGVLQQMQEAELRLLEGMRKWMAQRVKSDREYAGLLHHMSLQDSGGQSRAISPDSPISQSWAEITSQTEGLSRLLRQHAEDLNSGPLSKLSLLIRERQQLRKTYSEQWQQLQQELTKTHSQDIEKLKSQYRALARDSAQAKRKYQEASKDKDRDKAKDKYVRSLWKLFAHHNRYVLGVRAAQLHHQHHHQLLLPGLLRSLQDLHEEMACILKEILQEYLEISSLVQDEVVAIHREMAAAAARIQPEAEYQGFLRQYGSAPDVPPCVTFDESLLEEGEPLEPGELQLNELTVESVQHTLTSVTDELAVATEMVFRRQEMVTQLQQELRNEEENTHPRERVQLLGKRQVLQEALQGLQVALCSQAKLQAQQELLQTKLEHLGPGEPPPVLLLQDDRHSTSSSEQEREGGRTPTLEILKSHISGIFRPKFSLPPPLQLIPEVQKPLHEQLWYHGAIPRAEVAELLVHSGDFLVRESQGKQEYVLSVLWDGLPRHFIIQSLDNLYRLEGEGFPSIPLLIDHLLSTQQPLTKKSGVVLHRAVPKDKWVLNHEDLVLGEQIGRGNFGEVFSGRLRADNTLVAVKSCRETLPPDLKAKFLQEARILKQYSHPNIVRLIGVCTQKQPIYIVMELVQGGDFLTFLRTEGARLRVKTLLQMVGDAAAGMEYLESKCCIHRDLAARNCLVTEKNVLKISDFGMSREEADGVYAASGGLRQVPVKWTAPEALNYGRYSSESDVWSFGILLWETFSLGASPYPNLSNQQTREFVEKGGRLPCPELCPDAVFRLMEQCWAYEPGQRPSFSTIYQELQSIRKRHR

Sequence | SH2 binding enrichment (Grb2 SH2) | SH2 binding enrichment (SHP2-C SH2) | SH2 binding enrichment (c-Src SH2) | phosphorylation enrichment (AncSZ) | phosphorylation enrichment (EPHB1) | phosphorylation enrichment (EPHB2) | phosphorylation enrichment (FGFR1) | phosphorylation enrichment (FGFR3) | phosphorylation enrichment (Fer (mouse)) | phosphorylation enrichment (Fes) | phosphorylation enrichment (Fyn) | phosphorylation enrichment (Hck) | phosphorylation enrichment (Jak2) | phosphorylation enrichment (MERTK) | phosphorylation enrichment (c-Abl (mouse)) | phosphorylation enrichment (c-Src)
ITLPIYTKGSE [ANK2_Y1455_E1458G] | 0.78 | 0.715 | 0.392 | 0.63 | 0.599 | 0.478 | 0.392 | 0.502 | 0.451 | 0.759 | 0.581 | 0.645 | 0.571 | 0.481 | 0.446 | 0.529
ITVPAYFNDLQ [HSPA9_Y196_S200L] | 1.15 | 0.722 | 0.583 | 1.13 | 0.705 | 0.495 | 0.555 | 0.77 | 0.524 | 1.3 | 0.452 | 0.538 | 1.15 | 0.431 | 0.766 | 0.468
IVGRLYRLLTE [SETX_Y1978_L1976R] | 1.05 | 0.734 | 0.738 | 1.1 | 0.481 | 0.494 | 0.418 | 0.644 | 0.37 | 1.12 | 0.376 | 0.387 | 0.954 | 0.396 | 0.676 | 0.331
IVLRSYPASGH [NID2_Y449] | 0.716 | 0.831 | 0.533 | 0.726 | 0.532 | 0.451 | 0.392 | 0.596 | 0.479 | 0.817 | 0.481 | 0.415 | 0.682 | 0.493 | 0.511 | 0.415
IVRSRYEDLED [VHL_Y185_L184R] | 0.897 | 0.602 | 0.413 | 1.37 | 0.675 | 0.759 | 0.664 | 0.704 | 0.619 | 0.946 | 0.693 | 0.651 | 0.964 | 0.788 | 0.968 | 0.585

Second part, led by results:

SH2 binding enrichment (Grb2 SH2) | SH2 binding enrichment (SHP2-C SH2) | SH2 binding enrichment (c-Src SH2) | Sequence | phosphorylation enrichment (AncSZ) | phosphorylation enrichment (EPHB1) | phosphorylation enrichment (EPHB2) | phosphorylation enrichment (FGFR1) | phosphorylation enrichment (FGFR3) | phosphorylation enrichment (Fer (mouse)) | phosphorylation enrichment (Fes) | phosphorylation enrichment (Fyn) | phosphorylation enrichment (Hck) | phosphorylation enrichment (Jak2) | phosphorylation enrichment (MERTK) | phosphorylation enrichment (c-Abl (mouse)) | phosphorylation enrichment (c-Src)
1.22 | 12.4 | 2.04 | ISKKHYAGLLF [POLD1_Y809_R808H] | 0.545 | 0.317 | 0.381 | 0.468 | 0.643 | 0.469 | 0.671 | 0.42 | 0.46 | 0.636 | 0.456 | 0.521 | 0.436
0.83 | 0.485 | 1.12 | ITRDIYETDFF [INSR_Y1185_M1180I_YF] | 1.44 | 0.803 | 0.711 | 0.539 | 0.738 | 0.983 | 1.25 | 1.46 | 1.12 | 1.16 | 1.26 | 0.698 | 1.75
0.937 | 0.63 | 11.8 | IVRSLYEDVED [VHL_Y185_L188V] | 1.3 | 0.611 | 0.701 | 0.502 | 0.674 | 1.69 | 1.26 | 0.488 | 0.526 | 1.21 | 0.458 | 0.834 | 0.51
